The target of one experiment is T1, TLR4 (Homo sapiens, UniProt O00206).
T1 construct: a Myc-tagged TLR4 deletion construct lacking the ectodomain (Myc TLR4 wt); Myc; expressed in transfected cells; host or cells: 293T cells
T1 sequence (O00206 653-839 limits assumed): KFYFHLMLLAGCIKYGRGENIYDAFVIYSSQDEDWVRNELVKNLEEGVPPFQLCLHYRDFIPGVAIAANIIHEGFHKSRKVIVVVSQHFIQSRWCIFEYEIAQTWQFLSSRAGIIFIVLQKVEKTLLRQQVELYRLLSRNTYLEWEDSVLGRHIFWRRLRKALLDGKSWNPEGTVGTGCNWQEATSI
Description: Co-immunoprecipitation with Myc-tagged TLR4 in 293T cells. The format is binding. Particulars: 293T cell lysates, anti-Flag immunoprecipitation. The text has this: Cells were transfected in the presence (+) or absence (−) of constructs encoding a wild-type portion of TLR4 (TLR4 wt), a mutant derivative thereof (TLR4 mut), wild-type TIRAP (TIRAP), a mutant TIRAP containing a P125H mutation (TIRAP PH), or wild-type MyD88 (MyD88), wherein each construct further encodes a Myc, Flag, or hemaglutanin (HA) tag, as indicated. Antibodies used for immunoprecipitation (IP) or immunoblot (IB) are indicated to the left of each blot.
To obtain biochemical conformation for a role of TIRAP in the TLR4 signaling pathway, TIRAP-TLR4 protein interactions were evaluated using co-immunoprecipitation experiments. 293T cells were co-transfected with 4.5 μg of a Myc-tagged TLR4 deletion construct lacking the ectodomain (Myc TLR4 wt) or its mutant derivative (Myc TLR4 P714H) in the presence or absence of 1.5 μg of Flag-tagged TIRAP (Flag TIRAP) or its mutant derivative containing the P125H mutation (Flag TIRAP PH). […] Immunocomplexes were washed, separated by SDS-PAGE electrophoresis, and then analyzed by immunoblotting with either anti-myc antibody to look for co-immunoprecipitated TLR4 or anti-Flag antibody to confirm immunoprecipitation of Flag TIRAP or Flag TIRAP P125H. Total cell lysates (35 μg/sample) were likewise analyzed by SDS-PAGE and immunoblotting to confirm equivalent expression of the appropriate proteins in every sample. […]

The target in a further experiment is T2, IL-1R (Homo sapiens, UniProt P14778).
T2 construct: expressed in transfected cells; host or cells: 293T cells
T2 sequence (P14778 18-569): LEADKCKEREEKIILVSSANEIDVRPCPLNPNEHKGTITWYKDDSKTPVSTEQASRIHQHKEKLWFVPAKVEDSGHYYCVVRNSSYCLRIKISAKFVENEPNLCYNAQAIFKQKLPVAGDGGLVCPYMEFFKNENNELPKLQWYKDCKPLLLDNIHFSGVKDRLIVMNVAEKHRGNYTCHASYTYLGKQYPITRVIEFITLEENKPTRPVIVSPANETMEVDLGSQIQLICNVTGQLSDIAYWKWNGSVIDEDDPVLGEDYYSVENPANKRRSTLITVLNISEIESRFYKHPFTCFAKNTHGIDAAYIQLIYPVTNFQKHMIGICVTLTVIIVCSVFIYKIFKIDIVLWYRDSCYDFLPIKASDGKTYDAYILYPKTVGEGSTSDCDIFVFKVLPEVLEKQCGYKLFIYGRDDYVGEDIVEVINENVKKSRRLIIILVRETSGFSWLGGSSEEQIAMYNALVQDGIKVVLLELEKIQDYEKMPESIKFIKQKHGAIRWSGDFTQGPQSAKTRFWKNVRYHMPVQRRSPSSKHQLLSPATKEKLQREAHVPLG
T2 sequence (Q9NPH3 21-570 partner): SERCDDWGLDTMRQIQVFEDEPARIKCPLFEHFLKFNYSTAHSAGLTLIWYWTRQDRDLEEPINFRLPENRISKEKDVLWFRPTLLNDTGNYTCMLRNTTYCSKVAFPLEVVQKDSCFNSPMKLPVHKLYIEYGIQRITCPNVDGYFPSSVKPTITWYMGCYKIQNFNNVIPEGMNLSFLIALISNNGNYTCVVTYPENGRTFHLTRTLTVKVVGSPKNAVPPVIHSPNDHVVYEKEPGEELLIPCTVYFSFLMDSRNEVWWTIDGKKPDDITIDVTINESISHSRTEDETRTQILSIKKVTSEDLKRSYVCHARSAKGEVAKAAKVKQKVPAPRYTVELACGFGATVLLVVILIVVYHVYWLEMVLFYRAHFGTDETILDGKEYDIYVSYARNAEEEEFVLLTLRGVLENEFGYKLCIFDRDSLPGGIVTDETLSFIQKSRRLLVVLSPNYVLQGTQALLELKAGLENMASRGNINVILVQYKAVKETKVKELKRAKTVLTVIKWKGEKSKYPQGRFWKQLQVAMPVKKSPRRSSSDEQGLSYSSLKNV
Description: IL-1R-induced NF-κB activity, luciferase reporter, 293T cells. The class given is cell-based. As to the method:
Unlike TLR4, neither IL-1R nor TLR9 can induce NF-κB in the absence of MyD88 (Kawai 1999; Schnare 2000; Adache 1998). To assess the possibility that TIRAP is the putative adapter in the MyD88-independent signaling pathway, we tested TIRAP P125H for its ability to inhibit NF-κB activity induced y IL-1R and TLR9. 293T cells were co-transfected with either vector alone (pcDNA3), IL-1R (0.1 μg), and IL-1R AcP (0.1 μg) [Dr. Medzhitov: Please indicate what the IL-1R AcP construct encodes] plasmid cDNAs, with or without increasing concentrations (10 ng, 50 ng, 200 ng) of TIRAP P125H plasmid and the NF-κB-dependent luciferase reporter gene.
In general terms: In a reporter assay the amount or activity of a reporter protein is the signal.

As to “TIRAP P125H: vector encoding a mutant form of TIRAP containing a proline to histidine mutation at amino acid position 125”, the “co-immunoprecipitation with TLR4” value in the experiment with TLR4 is listed as “filed to co-immunoprecipitate”. The “inhibition of NF-κB activity induced by IL-1B cytokine” value in the experiment with IL-1R is “did not inhibit”. The “inhibition of NF-κB activity induced by co-transfected IL-1R and IL-1R AcP” value in the experiment with IL-1R (293T cells, 10 ng, 50 ng, 200 ng plasmid) was “did not inhibit”.

The values are drawn from patent US6960343B2, “Toll/interleukin-1 receptor adapter protein (TIRAP)” (Yale University School of Medicine, priority 2001, dated 2005).
